# Patent publication US20250163168A1, “NOVEL ANTIBODIES AND ANTIBODY CONJUGATES FOR THE TREATMENT OF METABOLIC DISORDERS” (PFIZER INC., priority 2023, published 2025)
# Biological target: biotinylated human FcRn (hFcRn) (human) (UniProt P55899)
# Assay: human FcRn affinity column, pH gradient 5.5 to 8.8; retention time relative to the assay control mAb-A (N = 2)
# Chain of biotinylated human FcRn (hFcRn) (human) (P55899 24-297 limits assumed, form in doubt, chain 1 of 2): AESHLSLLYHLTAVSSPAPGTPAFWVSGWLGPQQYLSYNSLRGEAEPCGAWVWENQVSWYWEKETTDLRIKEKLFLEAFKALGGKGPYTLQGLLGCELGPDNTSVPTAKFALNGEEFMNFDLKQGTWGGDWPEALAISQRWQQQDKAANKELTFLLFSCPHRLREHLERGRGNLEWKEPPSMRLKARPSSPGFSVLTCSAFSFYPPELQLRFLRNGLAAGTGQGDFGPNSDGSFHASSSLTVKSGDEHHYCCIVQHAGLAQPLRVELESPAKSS
# Chain of biotinylated human FcRn (hFcRn) (human) (chain, as listed by the source limits assumed, form in doubt, chain 2 of 2): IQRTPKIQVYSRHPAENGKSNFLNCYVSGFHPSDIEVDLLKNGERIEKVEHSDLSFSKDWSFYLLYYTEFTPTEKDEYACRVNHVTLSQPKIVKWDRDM
row,Substance,hFcRN Relative Retention Time
1,negative control (polyreactivity assays) (antibody),0.8
2,positive control (polyreactivity assays) (antibody),4.15
